B1: Tat proofreading chaperone DmsD (Escherichia coli (strain K12)), P69853 (parent)
chain: MTHFSQQDNFSVAARVLGALFYYAPESAEAAPLVAVLTSDGWETQWPLPEASLAPLVTAFQTQCEETHAQAWQRLFVGPWALPSPPWGSVWLDRESVLFGDSTLALRQWMREKGIQFEMKQNEPEDHFGSLLLMAAWLAENGRQTECEELLAWHLFPWSTRFLDVFIEKAEHPFYRALGELARLTLAQWQSQLLIPVAVKPLFR
B2: Dimethyl sulfoxide reductase DmsA (Escherichia coli (strain K12)), P18775 (parent)
chain: MKTKIPDAVLAAEVSRRGLVKTTAIGGLAMASSALTLPFSRIAHAVDSAIPTKSDEKVIWSACTVNCGSRCPLRMHVVDGEIKYVETDNTGDDNYDGLHQVRACLRGRSMRRRVYNPDRLKYPMKRVGARGEGKFERISWEEAYDIIATNMQRLIKEYGNESIYLNYGTGTLGGTMTRSWPPGNTLVARLMNCCGGYLNHYGDYSSAQIAEGLNYTYGGWADGNSPSDIENSKLVVLFGNNPGETRMSGGGVTYYLEQARQKSNARMIIIDPRYTDTGAGREDEWIPIRPGTDAALVNGLAYVMITENLVDQAFLDKYCVGYDEKTLPASAPKNGHYKAYILGEGPDGVAKTPEWASQITGVPADKIIKLAREIGSTKPAFISQGWGPQRHANGEIATRAISMLAILTGNVGINGGNSGAREGSYSLPFVRMPTLENPIQTSISMFMWTDAIERGPEMTALRDGVRGKDKLDVPIKMIWNYAGNCLINQHSEINRTHEILQDDKKCELIVVIDCHMTSSAKYADILLPDCTASEQMDFALDASCGNMSYVIFNDQVIKPRFECKTIYEMTSELAKRLGVEQQFTEGRTQEEWMRHLYAQSREAIPELPTFEEFRKQGIFKKRDPQGHHVAYKAFREDPQANPLTTPSGKIEIYSQALADIAATWELPEGDVIDPLPIYTPGFESYQDPLNKQYPLQLTGFHYKSRVHSTYGNVDVLKAACRQEMWINPLDAQKRGIHNGDKVRIFNDRGEVHIEAKVTPRMMPGVVALGEGAWYDPDAKRVDKGGCINVLTTQRPSPLAKGNPSHTNLVQVEKV
partner: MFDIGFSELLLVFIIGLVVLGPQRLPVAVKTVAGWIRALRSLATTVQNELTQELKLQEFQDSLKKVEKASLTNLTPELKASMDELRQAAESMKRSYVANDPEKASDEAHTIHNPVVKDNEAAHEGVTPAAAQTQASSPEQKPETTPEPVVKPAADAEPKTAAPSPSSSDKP
B3: Sec-independent protein translocase protein TatC (Escherichia coli (strain K12)), P69423 (parent)
chain: MSVEDTQPLITHLIELRKRLLNCIIAVIVIFLCLVYFANDIYHLVSAPLIKQLPQGSTMIATDVASPFFTPIKLTFMVSLILSAPVILYQVWAFIAPALYKHERRLVVPLLVSSSLLFYIGMAFAYFVVFPLAFGFLANTAPEGVQVSTDIASYLSFVMALFMAFGVSFEVPVAIVLLCWMGITSPEDLRKKRPYVLVGAFVVGMLLTPPDVFSQTLLAIPMYCLFEIGVFFSRFYVGKGRNREEENDAEAESEKTEE
B4: Dimethyl sulfoxide reductase DmsA (Escherichia coli (strain K12)), P18775 (parent)
chain: B2 chain
partner: B3 chain

Variants of: B1
Details: with dmsa_ecoli dmsA

Variant	effect of a mutation on the interaction
MTHFSQQDNFSVAARVLGALFYYAPESAEAAPLVAVLTSDGWETQWPLPEASLAPLVTAFQTQCEETHAQAHQRYFVGPWALPSPPWGSVWLDRESVLFGDSTLALRQWMREKGIQFEMKQNEPEDHFGSLLLMAAWLAENGRQTECEELLAWHLFPWSTRFLDVFIEKAEHPFYRALGELARLTLAQWQSQLLIPVAVKPLFR [W72H;L75Y]	increasing interaction

Variants of: B2
Details: with tatb_ecoli tatB

Variant	effect of a mutation on the interaction
R16K;R17K	increasing interaction

Variants of: B3
Details: with dmsa_ecoli dmsA, P18775

Variant	effect of a mutation on the interaction
MSVEDTQPLITHLIELRKRLLNCIIAVIVIFLCLVYFANDIYHLVSAPLIKQLPQGSTMIATDVASPFFTPIKLTFMVSLILSAPVILYQVWAFIAPALYKHRRRLVVPLLVSSSLLFYIGMAFAYFVVFPLAFGFLANTAPEGVQVSTDIASYLSFVMALFMAFGVSFEVPVAIVLLCWMGITSPEDLRKKRPYVLVGAFVVGMLLTPPDVFSQTLLAIPMYCLFEIGVFFSRFYVGKGRNREEENDAEAESEKTEE [E103R]	decreasing interaction
MSVEDTQPLITHLIELRKRLLNCIIAVIVIFLCLVYFANDIYHLVSAALIKQLPQGSTMIATDVASPFFTPIKLTFMVSLILSAPVILYQVWAFIAPALYKHERRLVVPLLVSSSLLFYIGMAFAYFVVFPLAFGFLANTAPEGVQVSTDIASYLSFVMALFMAFGVSFEVPVAIVLLCWMGITSPEDLRKKRPYVLVGAFVVGMLLTPPDVFSQTLLAIPMYCLFEIGVFFSRFYVGKGRNREEENDAEAESEKTEE [P48A]	decreasing interaction

Variants of: B3
Details: with dmsd_ecoli dmsD

Variant	effect of a mutation on the interaction
MSVEDTQPLITHLIELRKRLLNCIIAVIVIFLCLVYFANDIYHLVSAPLIKQLPQGSTMIATDVASPFFTPIKLTFMVSLILSAPVILYQVWAFIAPALYKHRRRLVVPLLVSSSLLFYIGMAFAYFVVFPLAFGFLANTAPEGVQVSTDIASYLSFVMALFMAFGVSFEVPVAIVLLCWMGITSPEDLRKKRPYVLVGAFVVGMLLTPPDVFSQTLLAIPMYCLFEIGVFFSRFYVGKGRNREEENDAEAESEKTEE [E103R]	disrupting interaction
MSVEDTQPLITHLIELRKRLLNCIIAVIVIFLCLVYFANDIYHLVSAALIKQLPQGSTMIATDVASPFFTPIKLTFMVSLILSAPVILYQVWAFIAPALYKHERRLVVPLLVSSSLLFYIGMAFAYFVVFPLAFGFLANTAPEGVQVSTDIASYLSFVMALFMAFGVSFEVPVAIVLLCWMGITSPEDLRKKRPYVLVGAFVVGMLLTPPDVFSQTLLAIPMYCLFEIGVFFSRFYVGKGRNREEENDAEAESEKTEE [P48A]	decreasing interaction

Variants of: B4
Details: with tatc_ecoli tatC, P69423

Variant	effect of a mutation on the interaction
R16K;R17K	increasing interaction

Source: IntAct's records for PubMed 20169075
